Where no end group is shown, it is not given here.
Test: First-order nonenzymatic deamidation of pentapeptides in Tris buffer
Type: physicochemical
Details: 0.15 M Tris HCl; for First-Order Deamidation Halftimes of GlyXxxAsnYyyGly: pH 7.4, 37.0° C., Asn pentapeptides; for First-Order Deamidation Halftimes of GlyXxxGlnYyyGly: pH 7.4, 37.0 ° C., Gln pentapeptides, 52 values measured, rest derived from surface fitting
Procedure, shortened: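 Pentapeptides containing Asn or Gln in varied flanking sequences incubated at 37° C., pH 7.4, 0.15 M Tris buffer; first-order deamidation rates measured. Some Asn values estimated from remaining data; many Gln values derived from surface fitting rather than measured.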

Substance	First-Order Deamidation Halftimes of GlyXxxAsnYyyGly	First-Order Deamidation Halftimes of GlyXxxGlnYyyGly
GlyAmCysAsnGlyGly (CNGG; not fully specified (N-terminus); printed as GlyAmCysAsnGlyGly)	1.14 days	
GlyGlyAsnValGly (GGNVG; printed: GlyGlyAsnValGly)	224 days	
GlyCysAsnSerGly (GCNSG; printed: GlyCysAsnSerGly)	19.0 days	
GlyLeuAsnPheGly (GLNFG; printed: GlyLeuAsnPheGly)	72.4 days	
GlySerAsnLeuGly (GSNLG; printed: GlySerAsnLeuGly)	110 days	
GlyAlaGlnIleGly (GAQIG; printed: GlyAlaGlnIleGly)		6200 days
GlyLeuAsnAspGly (GLNDG; printed: GlyLeuAsnAspGly)	32.1 days	
GlyLysAsnGlyGly (GKNGG; printed: GlyLysAsnGlyGly)	1.02 days	
GlyProGlnMetGly (GPQMG; printed: GlyProGlnMetGly)		4500 days
GlyIleAsnLysGly (GINKG; printed: GlyIleAsnLysGly)	64.4 days	
GlyAmCysAsnLysGly (CNKG; not fully specified (N-terminus); printed as GlyAmCysAsnLysGly)	48.9 days	
GlyLysGlnCysGly (GKQCG; printed: GlyLysGlnCysGly)		1000 days
GlySerAsnAlaGly (GSNAG; printed: GlySerAsnAlaGly)	24.1 days	
GlyCysGlnSerGly (GCQSG; printed: GlyCysGlnSerGly)		3800 days
GlyArgAsnTyrGly (GRNYG; printed: GlyArgAsnTyrGly)	90.0 days	
GlyCysAsnTrpGly (GCNWG; printed: GlyCysAsnTrpGly)	111 days	
GlyMetAsnIleGly (GMNIG; printed: GlyMetAsnIleGly)	275 days	

Substance	First-Order Deamidation Halftimes of GlyXxxAsnYyyGly	First-Order Deamidation Halftimes of GlyXxxGlnYyyGly
GlyAmCysAsnSerGly (CNSG; not fully specified (N-terminus); printed as GlyAmCysAsnSerGly)	15.4 days	
GlyProAsnValGly (GPNVG; printed: GlyProAsnValGly)	364 days	
GlyAspGlnHisGly (GDQHG; printed: GlyAspGlnHisGly)		2500 days
GlyLysGlnLeuGly (GKQLG; printed: GlyLysGlnLeuGly)		5300 days
GlyAspAsnLeuGly (GDNLG; printed: GlyAspAsnLeuGly)	111 days	
GlyArgGlnAlaGly (GRQAG; printed: GlyArgGlnAlaGly)		4400 days
GlyGlyGlnGluGly (GGQEG; printed: GlyGlyGlnGluGly)		7300 days
GlyValAsnTyrGly (GVNYG; printed: GlyValAsnTyrGly)	79.2 days	
GlyArgGlnIleGly (GRQIG; printed: GlyArgGlnIleGly)		5500 days
GlyLysAsnAlaGly (GKNAG; printed: GlyLysAsnAlaGly)	23.6 days	
GlyArgAsnAspGly (GRNDG; printed: GlyArgAsnAspGly)	34.7 days	
GlySerGlnHisGly (GSQHG; printed: GlySerGlnHisGly)		6500 days
GlyTrpGlnValGly (GWQVG; printed: GlyTrpGlnValGly)		8200 days
GlyCysGlnAspGly (GCQDG; printed: GlyCysGlnAspGly)		6100 days
GlyLysAsnAspGly (GKNDG; printed: GlyLysAsnAspGly)	34.0 days	
GlyGluAsnMetGly (GENMG; printed: GlyGluAsnMetGly)	59.6 days	
GlyAlaAsnLeuGly (GANLG; printed: GlyAlaAsnLeuGly)	124 days	

Reference: patent publication US20050118674A1, “Engineering of Controlled Deamidation Rates in Peptides, Proteins, and Similar Structures” (priority 2003, published 2005)
